Data from patent US20230257479A1 (Genmab, published 2023).

T1: full length cynomolgus monkey 5T4 on transfected HEK-293 cells (cynomolgus monkey, UniProt Q4R8Y9 35-420)
T1 construct: Uniprot Q4R8Y9; residues 1-34 are the signal peptide; also called cynomolgus 5T4
T1 sequence: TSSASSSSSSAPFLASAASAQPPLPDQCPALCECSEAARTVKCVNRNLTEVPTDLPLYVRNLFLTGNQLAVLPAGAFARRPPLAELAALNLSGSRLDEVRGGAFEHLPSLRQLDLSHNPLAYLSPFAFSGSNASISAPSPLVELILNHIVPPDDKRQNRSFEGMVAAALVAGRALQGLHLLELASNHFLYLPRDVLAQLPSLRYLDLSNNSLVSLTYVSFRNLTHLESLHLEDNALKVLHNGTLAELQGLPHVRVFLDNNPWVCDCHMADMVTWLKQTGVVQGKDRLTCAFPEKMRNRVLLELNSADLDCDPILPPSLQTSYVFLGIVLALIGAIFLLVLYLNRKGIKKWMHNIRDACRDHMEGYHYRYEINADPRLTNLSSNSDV

T2: full length human 5T4 (SEQ ID NO: 1) on cells (human, UniProt Q13641 32-420)
T2 construct: Uniprot Q13641; residues 1-31 are the signal peptide; Used both for transfected HEK-293 cells and for 5T4-expressing human tumor cell lines
T2 sequence: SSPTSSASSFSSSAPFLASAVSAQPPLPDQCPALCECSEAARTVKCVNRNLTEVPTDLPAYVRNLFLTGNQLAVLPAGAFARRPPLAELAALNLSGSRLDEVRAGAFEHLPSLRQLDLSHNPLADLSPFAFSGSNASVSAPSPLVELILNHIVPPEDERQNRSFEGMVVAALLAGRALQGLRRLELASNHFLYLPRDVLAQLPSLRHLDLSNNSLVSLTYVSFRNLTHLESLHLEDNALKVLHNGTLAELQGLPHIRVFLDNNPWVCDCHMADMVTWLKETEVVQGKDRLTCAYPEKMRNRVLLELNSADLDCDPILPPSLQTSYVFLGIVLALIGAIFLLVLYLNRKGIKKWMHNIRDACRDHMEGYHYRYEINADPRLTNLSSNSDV

T3: human 5T4ECDHis (mature protein of SEQ ID NO: 99) (human, UniProt Q13641 32-355)
T3 construct: ECD of human 5T4 (aa 1-355 of Uniprot Q13641) with C-terminal His tag; residues 1-31 are the signal peptide; also called ECD of human 5T4 with a C-terminal His tag
T3 sequence: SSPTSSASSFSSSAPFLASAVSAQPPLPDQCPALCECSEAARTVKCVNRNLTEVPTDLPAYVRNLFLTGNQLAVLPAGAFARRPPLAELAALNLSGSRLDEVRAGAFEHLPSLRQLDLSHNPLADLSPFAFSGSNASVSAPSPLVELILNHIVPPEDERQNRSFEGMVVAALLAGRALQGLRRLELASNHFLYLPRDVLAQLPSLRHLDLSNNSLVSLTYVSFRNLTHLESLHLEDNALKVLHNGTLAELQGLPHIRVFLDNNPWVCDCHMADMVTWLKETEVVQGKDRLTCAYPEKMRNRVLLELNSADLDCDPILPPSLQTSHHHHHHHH


What was measured:
[1] = molecular target: T1, full length cynomolgus monkey 5T4 on …; assay: flow cytometry, HEK-293 cells transfected with cynomolgus monkey 5T4, PE secondary [II)G]
[2] = molecular target: T1, full length cynomolgus monkey 5T4 on …; assay: flow cytometry, HEK-293 cells transfected with cynomolgus monkey 5T4, PE secondary [II)I]
[3] = molecular target: T2, full length human 5T4 (SEQ ID NO: 1) on …; assay: flow cytometry, HeLa cells, PE secondary [II)H]
Protocol: Mono- and bivalent binding of 5T4 antibodies to HeLa cells was determined by flow cytometry. Cells were incubated with increasing concentrations of antibodies. After secondary labelling with Phycoerythrin (PE)-conjugated goat-anti-human IgG F(ab′)2, the mean fluorescence intensity (MFI) was determined by flow cytometry.
After washing twice in staining buffer, cells were incubated in 50 µL secondary antibody at 4° C. for 30 min. […] Next, cells were washed twice in staining buffer, re-suspended in 120 µL staining buffer and analyzed on a BD LSRFortessa FACS (BD Biosciences, USA). Binding curves were analyzed using non-linear regression (sigmoidal dose-response with variable slope) using GraphPad Prism V7.02 software (GraphPad Software, San Diego, CA, USA).

[4] = molecular target: T3, human 5T4ECDHis (mature protein of SEQ …); assay: BLI cross-block; competitor (immobilised): IgG1-5T4-127-FEAR
Protocol: (§1) Antibody cross-block analysis (epitope binning) was performed using biolayer interferometry on an Octet HTX instrument (ForteBio). 5T4 antibodies (20 µg/mL in 10 mM sodium acetate buffer pH 6.0, ForteBio) were immobilized on Amine-Reactive 2nd Generation (AR2G) biosensors (ForteBio) according to the manufacturer’s instructions. […] Next, the association response of a second 5T4 antibody (10 µg/mL) was determined for 500 s. Biosensors were regenerated by 3 times 5 s exposure to 10 mM glycine pH 2.5 followed by Sample Diluent, and the measurement was repeated with a new set of second 5T4 antibodies starting from the baseline step. Each biosensor was used four times. Measurements were performed at 30° C. using a shaker speed of 1000 rpm. Data were analyzed using Data Analysis Software v9.0.0.12 (ForteBio). The Y-axis was aligned to the association step and Savitzky-Golay filtering was applied. The response of Sample Diluent during the association step was subtracted from the association response of the second antibody in order to correct for the dissociation of 5T4ECDHis from the immobilized antibody. […] In general, responses > 0.1 nm were considered non-blocking antibody pairs (white), while responses between -0.1 and 0.1 nm were considered to be blocking antibody pairs (dark grey). […] In some cases, the data curves needed visual inspection by an expert to assign blocking, non-blocking or displacement properties to antibody pairs.

[5] = molecular target: T3, human 5T4ECDHis (mature protein of SEQ …); assay: BLI cross-block; competitor (immobilised): IgG1-5T4-A1-F405L
[6] = molecular target: T3, human 5T4ECDHis (mature protein of SEQ …); assay: BLI cross-block; competitor (immobilised): IgG1-5T4-076-FEAR
Protocol: as §1

[7] = molecular target: T3, human 5T4ECDHis (mature protein of SEQ …); assay: BLI cross-block; competitor (immobilised): IgG1-5T4-H8-FEAR
Protocol: as §1

[8] = molecular target: T3, human 5T4ECDHis (mature protein of SEQ …); assay: BLI cross-block; competitor (immobilised): IgG1-5T4-A3-F405L
Protocol: Antibody cross-block analysis (epitope binning) was performed using biolayer interferometry on an Octet HTX instrument (ForteBio). 5T4 antibodies (20 µg/mL in 10 mM sodium acetate buffer pH 6.0, ForteBio) were immobilized on Amine-Reactive 2nd Generation (AR2G) biosensors (ForteBio) according to the manufacturer’s instructions. […] Next, the association response of a second 5T4 antibody (10 µg/mL) was determined for 500 s. Biosensors were regenerated by 3 times 5 s exposure to 10 mM glycine pH 2.5 followed by Sample Diluent, and the measurement was repeated with a new set of second 5T4 antibodies starting from the baseline step. Each biosensor was used four times. Measurements were performed at 30° C. using a shaker speed of 1000 rpm. Data were analyzed using Data Analysis Software v9.0.0.12 (ForteBio). The Y-axis was aligned to the association step and Savitzky-Golay filtering was applied. The response of Sample Diluent during the association step was subtracted from the association response of the second antibody in order to correct for the dissociation of 5T4ECDHis from the immobilized antibody. The corrected association responses were plotted in a matrix format. In general, responses > 0.1 nm were considered non-blocking antibody pairs (white), while responses between -0.1 and 0.1 nm were considered to be blocking antibody pairs (dark grey). […] In some cases, the data curves needed visual inspection by an expert to assign blocking, non-blocking or displacement properties to antibody pairs.

[9] = molecular target: T3, human 5T4ECDHis (mature protein of SEQ …); assay: BLI cross-block; competitor (immobilised): IgG1-5T4-106-FEAR
[10] = molecular target: T3, human 5T4ECDHis (mature protein of SEQ …); assay: BLI cross-block; competitor (immobilised): IgG1-5T4-085-FEAR
[11] = molecular target: T1, full length cynomolgus monkey 5T4 on …; assay: flow cytometry, HEK-293 cells transfected with cynomolgus monkey 5T4, PE secondary [II)E]
[12] = molecular target: T2, full length human 5T4 (SEQ ID NO: 1) on …; assay: flow cytometry, HEK-293 cells transfected with human 5T4, PE secondary [II)E]
[13] = molecular target: T3, human 5T4ECDHis (mature protein of SEQ …); assay: BLI cross-block; competitor (immobilised): IgG1-5T4-207-FEAR
[14] = molecular target: T3, human 5T4ECDHis (mature protein of SEQ …); assay: BLI cross-block; competitor (immobilised): IgG1-5T4-059-FEAR
Protocol: as §1

[15] = molecular target: T3, human 5T4ECDHis (mature protein of SEQ …); assay: BLI cross-block; competitor (immobilised): IgG1-5T4-226-FEAR
Protocol: as §1

[16] = molecular target: T2, full length human 5T4 (SEQ ID NO: 1) on …; assay: flow cytometry, HEK-293 cells transfected with human 5T4, FITC secondary [I)D]
Protocol: Experiments were performed in technical duplicate. After washing twice in staining buffer, cells were incubated in 50 µL secondary antibody at 4° C. for 30 min. […] Cells were washed twice in staining buffer, re-suspended in 30 µL staining buffer and analyzed on an iQue Screener (Intellicyt Corporation, USA). Binding curves were analyzed using non-linear regression (sigmoidal dose-response with variable slope) using GraphPad Prism V7.02 software (GraphPad Software, San Diego, CA, USA).

[17] = molecular target: T3, human 5T4ECDHis (mature protein of SEQ …); assay: BLI, antibody on anti-human IgG Fc Capture biosensor, antigen in solution
Protocol: Affinities of the 5T4 antibodies for recombinant 5T4 protein were determined using label-free biolayer interferometry on an Octet HTX instrument (ForteBio, Portsmouth, UK). 5T4 antibodies (1 µg/mL) were immobilized for 600 seconds on anti-human IgG Fc Capture biosensors (ForteBio). […] Data were analyzed with Data Analysis Software v9.0.0.12 (ForteBio). Values of reference wells containing only Sample Diluent during the association and dissociation steps were subtracted from values of wells containing antigen, for each antibody separately. The Y-axis was aligned to the last 10 s of the baseline and Interstep Correction alignment to dissociation as well as Savitzky-Golay filtering was applied. Responses < 0.05 nm were excluded from analysis. The data were fitted using the 1:1 model and a global full fit with 200 s association time and 1000 s or 50 s dissociation time as Window of Interest. The fit with the full dissociation time (1000 s) as Window of Interest was used by default.

Binder	corrected association response [4]	corrected association response [5]	corrected association response [6]	corrected association response [7]	corrected association response [8]	corrected association response [9]	corrected association response [10]	corrected association response [13]	corrected association response [14]	corrected association response [15]	other results
bsIgG1-huCD3-H101G-FEALx5T4-127-FEAR (bispecific antibody, Fab-arm exchange product) heavy: not shown light: not shown VH: EVQLLESRGGLVQPGGSLRLSCAASGFTFSSYAMSWVRQAPGKGLEWVSTISGSGGSTYYADSVKGRFTISRDNSKKTLYLQMNSLRAEDTAVYYCAKDWGSGSYPAEYFQHWGQGTLVTVSS VL: EIVLTQSPATLSLSPGERATLSCRASQSVSSYLAWYQQKPGQAPRLLIYDASNRATGIPARFSGSGSGTDFTLTISSLEPEDFAVYYCQQRSNWLMYTFGQGTKLEIK	–	–	–	–	–	–	–	–	–	–	EC50 (read off the curve) [1]: ~0.1 mg/L
bsIgG1-huCD3-H101G-FEALx5T4-A3-FEAR (bispecific antibody, Fab-arm exchange product) heavy: not shown light: not shown VH: EVQLVESGGGLVQPKGSLKLSCAASGFTFNTYAMNWVRQAPGKGLEWVARIRSKSNNYATYYADSVKDRFTISRDDSQSMLYLQMNNLKTEDTAMYYCVRQWDYDVRAMNYWGQGTSVTVSS VL: DIVMTQSHIFMSTSVGDRVSITCKASQDVDTAVAWYQQKPGQSPKLLIYWASTRLTGVPDRFTGSGSGTDFTLTISNVQSEDLADYFCQQYSSYPYTFGGGTKLEIK	–	–	–	–	–	–	–	–	–	–	binding result [2]: binds; binding result [3]: binds
IgG1-5T4-A3-FEAR (antibody, V domains shown, Based on A3 from Wyeth; IgG1 with L234F, L235E, D265A, K409R (FEAR)) VH: EVQLVESGGGLVQPKGSLKLSCAASGFTFNTYAMNWVRQAPGKGLEWVARIRSKSNNYATYYADSVKDRFTISRDDSQSMLYLQMNNLKTEDTAMYYCVRQWDYDVRAMNYWGQGTSVTVSS VL: DIVMTQSHIFMSTSVGDRVSITCKASQDVDTAVAWYQQKPGQSPKLLIYWASTRLTGVPDRFTGSGSGTDFTLTISNVQSEDLADYFCQQYSSYPYTFGGGTKLEIK	–	–	–	–	–	–	–	–	–	–	EC50 (read off the curve) [2]: ~0.1 mg/L; binding result [3]: binds
IgG1-5T4-A3-F405L (antibody, V domains shown, Variable region of A3 of WO2007106744 in a human IgG1 backbone with F405L; also called surrogate A3 antibody) VH: EVQLVESGGGLVQPKGSLKLSCAASGFTFNTYAMNWVRQAPGKGLEWVARIRSKSNNYATYYADSVKDRFTISRDDSQSMLYLQMNNLKTEDTAMYYCVRQWDYDVRAMNYWGQGTSVTVSS VL: DIVMTQSHIFMSTSVGDRVSITCKASQDVDTAVAWYQQKPGQSPKLLIYWASTRLTGVPDRFTGSGSGTDFTLTISNVQSEDLADYFCQQYSSYPYTFGGGTKLEIK	-0.01 nm	0.76 nm	0 nm	0.49 nm	0.01 nm	0.56 nm	-0.01 nm	–	–	–	–
bsIgG1-huCD3-H101G-FEALx5T4-076-FEAR (bispecific antibody, Fab-arm exchange product) heavy: not shown light: not shown VH: QVQLVQSGAEVKKPGASVKVSCKASGYTFTSYGISWVRQAPGQGLEWMGWISAYNGNTNYAQKLQGRVTMTTDTSTRTAYMELRSLRSDDTAVYYCARDPGYFDWLYGDYWGQGTLVTVSS VL: AIQLTQSPSSLSASVGDRVTITCRASQGISSALAWYQQKPGKAPKLLIYDASSLESGVPSRFSGSGSGTDFTLTISSLQPEDFATYYCQQFNSYPRTFGQGTKVEIK	–	–	–	–	–	–	–	–	–	–	EC50 (read off the curve) [11]: ~0.4 mg/L; binding result [12]: binds
IgG1-5T4-076-FEAR (antibody, V domains shown, Monospecific, bivalent human IgG1 kappa with L234F, L235E, D265A, K409R (FEAR)) VH: QVQLVQSGAEVKKPGASVKVSCKASGYTFTSYGISWVRQAPGQGLEWMGWISAYNGNTNYAQKLQGRVTMTTDTSTRTAYMELRSLRSDDTAVYYCARDPGYFDWLYGDYWGQGTLVTVSS VL: AIQLTQSPSSLSASVGDRVTITCRASQGISSALAWYQQKPGKAPKLLIYDASSLESGVPSRFSGSGSGTDFTLTISSLQPEDFATYYCQQFNSYPRTFGQGTKVEIK	-0.02 nm	0.36 nm	-0.01 nm	-0.02 nm	0 nm	-0.03 nm	-0.01 nm	1.22 nm	0 nm	1.47 nm	EC50 (read off the curve) [11]: ~0.008 mg/L; EC50 (read off the curve) [12]: ~0.3 mg/L
IgG1-5T4-A1-F405L (antibody, V domains shown, Variable region of A1 of WO2007106744 in a human IgG1 backbone with F405L; also called surrogate A1 antibody) VH: QIQLVQSGPELKKPGETVKISCKASGYTFTNFGMNWVKQGPGEGLKWMGWINTNTGEPRYAEEFKGRFAFSLETTASTAYLQINNLKNEDTATYFCARDWDGAYFFDYWGQGTTLTVSS VL: SIVMTQTPKFLLVSAGDRVTITCKASQSVSNDVAWYQQKPGQSPKLLINFATNRYTGVPNRFTGSGYGTDFTFTISTVQAEDLALYFCQQDYSSPWTFGGGTKLEIK	0.15 nm	-0.01 nm	0.04 nm	0.64 nm	0.69 nm	0.79 nm	0.07 nm	1.29 nm	0.96 nm	1.56 nm	–
IgG1-5T4-H8-FEAR (antibody, V domains shown, Based on 5T4 antibody H8 from Wyeth (WO 2007/106744); IgG1 with L234F, L235E, D265A, K409R (FEAR); also called IgG1-5T4-HS-FEAR; IgG1-5T4-H8-FEAR-FITC) VH: EVQLQQSGPDLVKPGASVKISCKASGYSFTGYYMHWVKQSHGKSLEWIGRINPNNGVTLYNQKFKDKAILTVDKSSTTAYMELRSLTSEDSAVYYCARSTMITNYVMDYWGQVTSVTVSS VL: SIVMTQTPTFLLVSAGDRVTITCKASQSVSNDVAWYQQKPGQSPTLLISYTSSRYAGVPDRFIGSGYGTDFTFTISTLQAEDLAVYFCQQDYNSPPTFGGGTKLEIK	-0.02 nm	0.89 nm	0 nm	0 nm	0.5 nm	-0.02 nm	-0.01 nm	-0.01 nm	0.01 nm	-0.01 nm	EC50 (read off the curve) [16]: ~0.1 mg/L; Kd [17]: 1.3 nM; koff [17]: 0.00029 s⁻¹; kon [17]: 220000 M⁻¹ s⁻¹
